Experimental data as given in the Immune Epitope Database (IEDB).

Assays:
Assay in all cases: IEDB peptide-MHC binding, purified MHC/competitive/radioactivity; filed as Kd, often an IC50 or EC50 that approximates it; ≥ and ≤ were set here for values at or beyond the usual limits of such assays
Conditions in all cases: source organism: human papillomavirus 18
HLA-A*03:01 = molecular target: HLA-A*03:01
HLA-A*11:02 = molecular target: HLA-A*11:02
HLA-A*24:02 = molecular target: HLA-A*24:02
HLA-A*02:01 = molecular target: HLA-A*02:01
HLA-A*01:01 = molecular target: HLA-A*01:01

In the case of SVYGDTLEK, the Kd (HLA-A*03:01) is reported as 32 nM and the Kd (HLA-A*11:02) is reported as 2 nM.
Sequence VYGDTLEKL has a Kd (HLA-A*24:02) of 222 nM.
Sequence SLQDIEITC has a Kd (HLA-A*02:01) of 532 nM.
CIDFYSRIR showed a Kd (HLA-A*01:01) of 810 nM, a Kd (HLA-A*03:01) of 273 nM and a Kd (HLA-A*11:02) of 27 nM.
RQERLQRRR showed a Kd (HLA-A*03:01) of 484 nM.
With TEVFEFAFK the Kd (HLA-A*11:02) was 257 nM.
LFVVYRDSI gave a Kd (HLA-A*03:01) of 441 nM.
FQQLFLNTL gave a Kd (HLA-A*02:01) of 417 nM.
GQCHSCCNR was tested, and the Kd (HLA-A*11:02) was 64 nM.
GLYNLLIRC was tested, and the Kd (HLA-A*02:01) was 135 nM, the Kd (HLA-A*03:01) was 313 nM and the Kd (HLA-A*11:02) was 188 nM.
With KLPDLCTEL the Kd (HLA-A*02:01) was 602 nM.
With VYCKTVLEL the Kd (HLA-A*11:02) was 563 nM and the Kd (HLA-A*24:02) was 24 nM.
In the case of LFLNTLSFV, the Kd (HLA-A*02:01) is reported as 820 nM.
SIPHAACHK showed a Kd (HLA-A*11:02) of 15 nM.
IEITCVYCK gave a Kd (HLA-A*03:01) of 200 nM.
In the case of KCIDFYSRI, the Kd (HLA-A*02:01) is reported as 417 nM.
ELTEVFEFA showed a Kd (HLA-A*02:01) of 500 nM.
With RCQKPLNPA the Kd (HLA-A*11:02) was 563 nM.
Work on DIEITCVYC yielded a Kd (HLA-A*01:01) of 506 nM, a Kd (HLA-A*02:01) of 649 nM and a Kd (HLA-A*03:01) of 462 nM.
For LIRCLRCQK, the Kd (HLA-A*03:01) was 526 nM and the Kd (HLA-A*11:02) was 375 nM.
Sequence HTMLCMCCK has a Kd (HLA-A*03:01) of 73 nM and a Kd (HLA-A*11:02) of 5 nM.
With LQDIEITCV the Kd (HLA-A*01:01) was 988 nM and the Kd (HLA-A*03:01) was 625 nM.
Sequence FKDLFVVYR has a Kd (HLA-A*01:01) of 736 nM, a Kd (HLA-A*02:01) of 500 nM and a Kd (HLA-A*03:01) of 330 nM. It also gave a Kd (HLA-A*11:02) of 500 nM.
In the case of DLFVVYRDS, the Kd (HLA-A*03:01) is reported as 1000 nM.
In the case of VVYRDSIPH, the Kd (HLA-A*11:02) is reported as 5 nM.
Work on ATLQDIVLH yielded a Kd (HLA-A*11:02) of 12 nM.
HLNEKRRFH was tested, and the Kd (HLA-A*03:01) was 667 nM.
Sequence LLIRCLRCQ has a Kd (HLA-A*03:01) of 508 nM.
For RHTMLCMCC, the Kd (HLA-A*24:02) was 733 nM.
NTGLYNLLI showed a Kd (HLA-A*01:01) of 506 nM.
Work on FAFKDLFVV yielded a Kd (HLA-A*02:01) of 3 nM.
FLNTLSFVC gave a Kd (HLA-A*02:01) of 943 nM.
